Results reported in US20240189443A1, “PD-L1 AND TLR7 DOUBLE-TARGETING NANOBODY COUPLING DRUG AND USE THEREOF IN ANTI-TUMOR” (SHANGHAI INSTITUTE OF MATERIA MEDICA, CHINESE ACADEMY OF …, priority 2021, published 2024).
Several values for one entry are separate records, joined by “and”; a condition that tells them apart may be missing. Equal entries are not always repeated.

Columns and labels:
CT26 tumor cells = assay: Re-tumor model with CT26 cells in mice with regressed tumor; type: in vivo, mouse; conditions: re-tumor 1 week after tumor faded
Text: Moreover, in the early model, the coupling compound therapy will cause tumor regression of up to 62.5% tumor-bearing mice (FIG. 10B); in the late model, the compound drug will cause 12.5% tumor-bearing mice to have tumor regression (FIG. 10D).

[1] = test system: IFN-γ-induced high-expression PD-L1 CT26; assay: IFN-γ-induced high-expression PD-L1 CT26 subcutaneous tumor-bearing model, conjugate vs combined administration; type: in vivo, BALB/c mouse; conditions: Nb16 or Nb16-SZU-101 10 mg/kg, SZU-101 0.5 mg/kg, intraperitoneal
Description: In an IFN-γ-induced high-expression PD-L1 CT26 subcutaneous tumor-bearing BALB/c mouse model, mice were randomly divided into four groups, namely an mFc group, an Nb16 group, an Nb16/SZU-101 combined administration group and an NB16-SZU-101 nanobody conjugate drug group, wherein the administration dosage of the mFc or Nb 16 or Nb16-SZU-101 was 10 mg/kg, the administration mode was intraperitoneal administration, the administration dosage of the SZU-101 was 0.5 mg/kg, and the administration mode was intraperitoneal administration; the drug was administered on Day 2, Day 6, Day 10 and Day 13 for a total of 4 times. Tumor sizes were measured 2-3 times per week, and tumor growth curves were drawn; and anatomical weighing and photographing were performed on mice at Day 14.

[2] = test system: CD4+T cells, CD8+T cells, NK cells, macrophages; assay: Immune cell deletion analysis of conjugate efficacy; type: in vivo, Balb/c mice
Text: Balb/c mice were randomized into 6 groups of 6 mouse each. Corresponding groups are: MFC group, Nb16-SZU-101 group, Nb16-SZU-101+anti-CD4 group, Nb16-SZU-101+anti-CD8 group, Nb16-SZU-101+anti-NK1.1 group, Nb16-SZU-101+chlorophosphate liposome group. The administration of the mFc and Nb16-SZU-101 was consistent with example 8.1.
The immune cell deletion method comprised: deleting corresponding immune cells (CD4+T cells, CD8+T cells, NK cells) by intraperitoneal injection of antibody drugs (anti-CD4, anti-CD8, anti-NK1.1) respectively in Day 3 (200 ug/one)/Day 4 (100 ug/one)/Day 5 (100 ug/one), or intraperitoneal injection of chlorophosphate-liposomes to remove macrophages.
On Day 14 the mice would be euthanized.

non-induced CT26 = assay: Uninduced (low expression) PD-L1 CT26 subcutaneous tumor-bearing model; type: in vivo, BALB/c mouse; conditions: 10 mg/kg intraperitoneal, 4 doses
Text: In FIG. 8A, it has been shown that the non-induced CT26 cell surface PD-L1 expression is approximately 17.3%, and the expression level of PD-L1 is increased to 98.1% only after IFN-γ induction. Therefore, we researched and compared the effects of the coupling compound in the non-induced and induced CT26 mouse tumor model, respectively.
In the two models, CT26 tumor cells were subcutaneously inoculated into female BALB/c mice before and after induction respectively to construct tumor-bearing mouse models, and the inoculation amount was 1×10^6 cells/one; the mice are randomly divided into two groupswith 6 mice of each group, that is, a blank control group mFc (the concentration is 10 mg/kg), and a coupling compound Nb16-SZU-101 group (the concentration was 10 mg/kg); the administration dosage was 200 μl, and the administration modes were both intraperitoneal administration; administration was performed on Day 2, Day 5, Day 8 and Day 11 respectively, and administration was carried out for 4 times; the size of the tumor was measured for 2-3 times every week, and a tumor growth curve was drawn; and anatomical weighing and photographing were performed on the mouse at Day 12.

[3] = test system: uninduced CT26 tumor cell; assay: Early CT26 subcutaneous tumor-bearing model (tumor volume<50 mm^3); type: in vivo, BALB/c mouse
Description: The uninduced CT26 tumor cell subcutaneous was inoculated into a female BALB/C mouse to construct a tumor-bearing mouse model in the two models, and the inoculation amount was 1×10^6 cells/; the mice were divided into two groups, and each group was 8 mice, that is, a blank control group mFc (the concentration was 10 mg/kg), and a coupling compound Nb16-SZU-101 group (the concentration was 10 mg/kg); and the administration dosage was 200 μL, and the administration manner was an abdominal administration. In the early model (the tumor volume was<50 mm^3), the drug was administered in Day 4, Day 7, Day 10, Day 13, Day 16, and the drug was administered for 5 times; in the late model (the tumor volume was greater than 200 mm^3), the drug was administered in Day 9, Day 12, Day 15, Day 17, and the drug was administered for 4 times. The tumor size was measured 2-3 times a week, and a tumor growth curve was drawn.

B1: Nb16-SZU-101: PD-L1 and TLR7 dual-targeting nanobody coupling drug, Nb16 coupled with SZU-101-NHS active ester (conjugate)
chain: QVQLQESGGGSVQAGGSLRLSCAASGYTDRNYWMGWFRQAPGKEREGVAALYTRTGSTYYADSVKGRFTISHDNAKNTLYLQMNSLKPEDTAVYYCAADSNAYGLAPLHHYWGQGTQVTVSS
modifications: left off: a dimerising Fc or GST
CT26 tumor cells
  Tumor growth after re-tumor of CT26 cells: does not grow the tumor within 40 days
[1]; Day 14, 4 doses
  Tumor inhibitory rate: 81%
[1]
  Anti-tumor effect: significantly improved anti-tumor effect
[1]; individual mice, Day 14, 4 doses
  Endpoint tumor Weight: 0.191 g and 0.146 g and 0.155 g and 0.084 g and 0.012 g and 0.087 g
[2]; anti-CD4 or chlorophosphate liposomes intraperitoneal
  Effect of deletion of CD4+T cells and macrophages on efficacy: little influence on the efficacy
[2]; anti-CD8 or anti-NK1.1 intraperitoneal
  Effect of deletion of CD8+T cells and NK cells on efficacy: greatly affects the efficacy
non-induced CT26
  Tumor growth inhibition rate: 78.9%
[3]
  Lifetime (survival): significantly prolong the lifetime
[3]; 10 mg/kg abdominal administration, 5 doses
  Tumor growth inhibition rate: 80.3%
[3]; 10 mg/kg, 5 doses
  Tumor-bearing mice with tumor regression: up to 62.5%
